Results reported in US20220265772A1, “USES OF DAN FAMILY BMP ANTAGONISTS FOR INHIBITING OCULAR NEOVASCULARIZATION AND TREATING OCULAR CONDITIONS” (9636137 Canada Inc., priority 2019, published 2022).

Assays:
[1] = test system: human pluripotent stem cells / stem cell-derived human cones; details: cited from earlier work
Wnt signaling = details: previous study (5); cited from earlier work
VEGF signaling = VEGF signaling and VEGF receptor levels in HUVECs (immunoblotting); assay type: cell-based, human
Protocol: FIG. 6A: HUVECs were grown in complete media were in the absence or presence of Dand5 or IWR1 for up to 24 hours. Protein extracts were analyzed by immunoblotting (representative image of n=3 experiments). FIG. 6C: HUVECs were grown in low serum media for 16 h in the absence or presence of 60 ng/mL of Dand5. VEGF signaling was induced by addition of 25 ng/mL of rhVEGF for up to 60 minutes. Protein extracts were analyzed by immunoblotting (representative image of n=3). FIG. 6D: Quantification of the mean gray value of phosphorylated proteins normalized to the mean gray value of β-Actin of immunoblots in FIG. 6C (n=3, ns). FIG. 6E: HUVECs were plated in the presence or absence of 60 ng/mL of Dand5. Proteins extracts were analyzed for expression of VEGF receptors (representative image of n=3).
Cells were washed with cold PBS and extracted in Laemmli's buffer, followed by sonication. Samples were run on SDS-PAGE gels and transferred onto nitrocellulose membranes. Membranes were blocked with 5% Bovine Serum Albumin (BSA) and probed with primary antibodies overnight at 4° C.: beta-Catenin (Cell Signaling Technology), phospho-beta-catenin (Cell Signaling Technology), Axin2 (Cell Signaling Technology), beta-Actin (Santa Cruz Technologies). HRP-conjugated secondary antibodies (Vector Laboratories) were used to detect primary antibodies.
HUVECs were starved overnight in the presence or absence of DAND5, followed by VEGF stimulation for up to 60 minutes. […] Likewise, VEGFR2 and VEGFR1 levels were unaffected upon HUVECs exposure to DAND5 for 0.5-24 h (FIG. 6 E, F).

B1: DAND5: human recombinant DAND5/COCO biologically active fragment produced in E. coli, predicted 18.2 kDa monomer, R&D systems 3047-CC-050 (protein)
chain: MRPEPQSPRPQSWAAANQTWALGPGALPPLVPASALGSWKAFLGLQKARQLGMGRLQRGQDEVAAVTLPLNPQEVIQGMCKAVPFVQVFSRPGCSAIRLRNHLCFGHCSSLYIPGSDPTPLVLCNSCMPARKRWAPVVLWCLTGSSASRRRVKISTMLIEGCHCSPKA
cone photoreceptor differentiation and maintenance ([1]; recent study (16)): potent inducer of cone photoreceptor differentiation and maintenance | differentiation of human pluripotent stem cells into cone photoreceptors ([1]; reference (16)): can promote the differentiation of human pluripotent stem cells into cone photoreceptors | Wnt signaling in photoreceptors (Wnt signaling): potent inhibitor of Wnt signaling in photoreceptors | VEGFR2 phosphorylation at Y1175 (VEGF signaling; HUVECs cultured in the presence of DAND5): unaffected | VEGFR2 and VEGFR1 levels (VEGF signaling; HUVECs exposed for 0.5-24 h): unaffected | VEGF-induced phosphorylation of VEGF downstream effectors (VEGF signaling; HUVECs starved overnight with DAND5, VEGF stimulation up to 60 minutes): no significant decrease in VEGF-induced phosphorylation of VEGF downstream effectors
